Measured values: patent US20240382588A1 (published 2024)

Key:
Assay in all cases: multimer staining
[1] = molecular target: T1, MPO (myeloperoxidase) peptide on HLA-DRA*01:01 / HLA-DRB1*04:05 (human)
T1 peptide: MVQIITYRDYLPLVL

[2] = molecular target: T2, Ro60 peptide on HLA-DRA*01:01 / HLA-DRB1*03:01 (human)
T2 peptide: KRFLLAVDVSASMNQ

[3] = molecular target: T3, SmD1 (Smith protein) peptide on HLA-DRA*01:01 / HLA-DRB1*03:01 (human)
T3 peptide: TLLVDVEPKVKSKKR

binding result [1]: recognises
binding result [2]: recognises
binding result [3]: recognises
B1: Promiscuous self-TCR (TCR, V domains shown)
Valpha: RKEVEQDPGPFNVPEGATVAFNCTYSNSASQSFFWYRQDCRKEPKLLMSVYSSGNEDGRFTAQLNRASQYISLLIRDSKLSDSATYLCVVPPGGGFKTIFGAGTRLFVKA
Vbeta: EAQVTQNPRYLITVTGKKLTVTCSQNMNHEYMSWYRQDPGLGLRQIYYSMNVEVTDKGDVPEGYKVSRKEKRNFPLILESPSPNQTSLYFCASRTRTASYGYTFGSGTRLTVV
